According to patent US20140289906A1, “Compositions Having Dicamba Decarboxylase Activity and Methods of Use” (priority 2013, published 2014):
Numbering of substitutions follows the chain as printed.

B1: 121 (protein)
chain: MAIIDCHGHYTTTPKGVEDYRNAQKAAVAKDPSFKGEKGQVVVSDDEIRESIENNQLKMQRERGTDLTIFSPRWDAGGHHIGNEYTSQFWTEHQNDLIRRVCDLFPKNFAPVAQLPQSPGVDPAKSVPEIVRTVEQMGFIGINLNPDPSGGYWKDTSLADRAFYPIYEKMVEYDIPAMIHPRLACNACFHTGLSVGLGADTTGFQQLIMSDVFKDFPSLKIIIPHGGGAVPYHWGRFRGLMQDQGYAPLEESALKNIYFDTCVYHQRGIDLLLDIVPTQNILFASEMIGAVRGIDPETGHNFDDTKRYIDNNTALNAEEKAMIFEGNARRVFSRLKTD
modifications: Dicamba decarboxylase variant clone DC.12.014
B2: 1 (protein, listed as Rhizobium sp.)
chain: MAQGKVALEEHFAIPETLQDSAGFVPGDYWKELQHRLLDIQDTRLKLMDAHGIETMILSLNAPAVQAIPDRRKAIEIARRANDVLAEECAKRPDRFLAFAALPLQDPDAATEELQRCVNDLGFVGALVNGFSQEGDGQTPLYYDLPQYRPFWGEVEKLDVPFYLHPRNPLPQDSRIYDGHPWLLGPTWAFAQETAVHALRLMASGLFDEHPRLNIILGHMGEGLPYMMWRIDHRNAWVKLPPRYPAKRRFMDYFNENFHITTSGNFRTQTLIDAILEIGADRILFSTDWPFENIDHASDWFNATSIAEADRVKIGRTNARRLFKLDGA
B3: 117 (protein)
chain: MAKKPRIDMHSHFFPRISEQEAAKFDANHAPWLQVSAKGDTGSIMMGKNNFRPVYQALWDPAFRIEEMDAQGVDVQVTCATPVMFGYTWEANKAAQWAERMNDFALEFAAHNPQRIKVLAQVPLQDLDLACKEASRAVAAGHLGIQIGNHLGDKDLDDATLEAFLTHCANEDIPILVHPWDMMGGQRMKKWMLPVLVAAPAEVQLAILSLILSGAFERIPKSLKICFAGGGGSFAFLLGIVDLAWRHRDIVREDCPRPPSEYVDRFFVDSLVFNPGALELLVSVMGEDRVMLGSDYPFPTGEQKIGGLVLSSNLGESAKDKIISGNASKFFNINV
modifications: Dicamba decarboxylase variant clone DC.5.008
B4: 120 (protein)
chain: MAIIDCHGHYTTTPKGVETYRNAQKAAVAKDPSFKYEKGQVVVSDDEIRESIENNQLKMQRERGTDLTIFSPRSTAGGHHIGNEYTSQFWTEHQNDLIRRVCDLFPKNFAPVAQLPQSPGVDPAKSVPEIVRTVEQMGFIGINLNPDPSGGYWKDTSLADRAFYPIYEKMVEYDIPAMIHPRNACNDCFHTTGSHALGADTTGFQQLIMSDVFKDFPSLKIIIPHGGGAVPYHWGRFRGLMQDQGYAPLEESALKNIYFDTCVYHQRGIDLLLDIVPTQNILFASEMIGAVRGIDAETGHNFDDTKRYIDNNTALNAEEKAMIFEGNARRVFSRLKTD
modifications: Dicamba decarboxylase variant clone DC.12.002
B5: 122 (protein)
chain: B4 chain with T19D, Y36G, E286D, A296P
modifications: Dicamba decarboxylase variant clone DC.12.103
B6: 118 (protein)
chain: MAKKPRIDMHSHFFPRISEQEAAKFDANHAPWLQVSAKGDTGSIMMGKNNFQPVYQALWDPAFRIEEMDAQGVDVQVTCATPVMFGYTWEANKAAQWAERMNDFALEFAAHNPQRIKVLAQVPLQDLDLACKEASRAVAAGHLGIQIGNHLGDKDLDDATLEAFLTHCANEDIPILVHGTDMMGGQRMKKWGLPWLVALAAEVQLAILSLILSGAFERIPKSLKICFSHGGGSFAFLLGLVDEAWRHVDIVREDCPRPPSEYVDRFFVDSVGNPGALELLVSVMGEDRVMLGSDYPHTTGEQKIGGLVLSSNLGESAKDKIISGNASKFFNINV
modifications: Dicamba decarboxylase variant clone DC.5.033
B7: 119 (protein)
chain: B6 chain with T180W, P194Y, L199H, A200H, L237T, L240W, H297L
modifications: Dicamba decarboxylase variant cloneDC.5.034

Experiment: 14C assay: 14CO2 capture from [14C]-carboxyl-labeled dicamba with purified protein
Assay type: biochemical
Conditions: not given

Molecule | CO2 product detected
B1 | not detected
B2 | detected
B3 | not detected
B4 | not detected
B5 | not detected
B6 | not detected
B7 | not detected

Experiment: GC/MS detection of 2,5-dichloro anisole (2,5-DCA), toluene trapping or head-space
Assay type: biochemical
Conditions: purified protein, dicamba, toluene capturing
Experimental: Alternatively, dicamba decarboxylase activity can be monitored by measuring decarboxylation products other than CO2 using product detection methods. The decarboxylation product of dicamba, 2,5-dichloro anisole or 2,5-DCA (FIG. 1C), is a volatile compound with a flash point of 21° C. To capture this volatile compound for detection, 140 ul of toluene solution is added on top of 1 ml reaction mixture to form a trapping layer in a 1.5 ml eppendorf tube. […] The reaction is kept still at room temperature overnight before being vortex mixed and centrifuged at 14,000 rpm for 15 minutes. The top toluene phase is carefully removed using a micropipette and transferred into a 12×32 mm polypropylene vial (Vial 11 mm) from MicroLiter Analytical Supplies, Inc. (catalog number 11-5300-100). The vial is sealed with Crimp seal (11 mm with FEP/Nat Rubber) from MicroLiter Analytical Supplies, Inc. (catalog number 11-0020A) using a E-Z Crimper™ 11 mm from Wheaton Inc. 1 ul of the toluene mixture is taken from the sealed vials and injected in splitless mode into a GC/MS system for sample analysis (Agilent GC/MS system with a 6890A GC, a 5973N MSD and a CTC CombiPAL auto-sampler or with a 7890A GC, a 5975C MSD and an Agilent GC Sampler 80 auto-sampler). The GC parameters are: Agilent DB-5MS column (30 m length, 0.25 mm diameter, 0.25 um film) or equivalent; The GC inlet temperature, 250° C.; Carry gas, helium in constant flow mode (1.2 mL/min); The GC oven temperature program, initial temperature at 70° C. for 1 min, ramping to 200° C. at 15° C./min, and then ramping to 250° C. at 30° C./min. MS data acquisition is done in SIM (selected ion monitoring) mode, monitoring the positive ion at M/Z 176 for the molecular ion of […]. The solvent delay for MS acquisition is set at 4 min. Another method for detection of 2,5-DCA is a head-space GC/MS method. Briefly, reaction mixtures in 500 ul reaction volume are prepared in 1.5 ml 12×32 mm glass vials (Microliter Analytical Supplies, Cat#11-1200) for head space analysis. Glass vials are sealed with magnetic cap from MicroLiter Analytical Supplies, Inc. (catalog number 11-0030AT) using a E-Z Crimper™ 11 mm from Wheaton Industries Inc. The reaction is carried out at room temperature for various amount of time and stopped by heating at 95° C. for 5 min. The reaction vial is transferred to a agitator for incubation at 80° C. for 5 min at 500 rpm. With a syringe preheated at 80° C., 1000 uL of head space is injected with sample fill speed at 100 uL/sec. GC/MS parameters for headspace analysis are the same as for liquid sample analysis.

Molecule | 2,5-DCA product detected
B1 | detected
B2 | detected
B3 | detected
B4 | detected
B5 | detected
B6 | detected
B7 | detected

Experiment: LC-MS/MS detection of 4-chloro-3-methoxy phenol
Assay type: biochemical
Conditions: purified protein, dicamba
Experimental: The decarboxylated and chloro hydrolyzed product, 4-chloro-3-methoxy phenol (FIG. 1D), is measured using a LC-MS/MS analytical procedure. […] 10 ul is removed from the reaction mixture and mixed with 90 ul pre-chilled methanol followed by centrifugation at 14,000 rpm for 15 min at 4° C. 10 ul of the supernatant is then transferred into 170 ul ddH2O to achieve 5% methanol solution for injection. 50 ul of the prepared sample is injected into a 4000 Q Trap LC-MS/MS system for sample analysis. LC-MS/MS parameters are: Mobile Phase A, 2 mM ammonium acetate in water; Mobile Phase B, 2 mM ammonium acetate in methanol; Column, Aquasil, 100×2.1 mm, 3 μm, C18 column; Flow Rate, 0.6 ml/min. The MS/MS fragment 157/142 which is common to 4-chloro-3-methoxy phenol, 2-chloro-5-methoxy phenol, and 3-chloro-5-methoxy phenol is monitored at a retention time of 2.88 min.

Molecule | 4-chloro-3-methoxy phenol product detected
B1 | not detected
B2 | detected
B3 | not detected
B4 | not detected
B5 | not detected
B6 | not detected
B7 | not detected

Experiment: GC/MS detection of 2,5-dichloro phenol (2,5-DCP); kinetic determination
Assay type: biochemical
Conditions: purified protein, dicamba
Experimental: The decarboxylated and demethylated product of dicamba, 2,5-dichloro phenol or 2,5-DCP (FIG. 1E) is measured using a GC/MS analytical procedure with either liquid injection after liquid/liquid extraction using toluene as the extraction solvent or gas injection using head space method. The head space sample analysis is carried out on an Agilent GC/MS system with a 6890A GC, a 5973N MSD and a CTC CombiPAL auto-sampler or with a 7890A GC, a 5975C MSD and an Agilent GC Sampler 80 auto-sampler with Phenomenex ZB-MultiResidue-1 column (30 m length, 0.25 mm diameter, 0.25 um film) or equivalent. GC/MS parameters are: GC inlet temperature, 200° C.; Carry gas, helium in constant flow mode (1.2 mL/min); Oven temperature program, 70° C. for 1 min and then ramp to 275° C. at 40° C./min. […] The reaction vial is transferred to a agitator for incubation at 90° C. for 4 min at 500 rpm. With a syringe preheated at 110° C., 1000 uL of head space is injected with sample fill speed at 100 uL/sec. A 2-mm diameter liner is used in sample inlet. The MS data acquisition is done in SIM (selected ion monitoring) mode. The positive ion at M/Z 162 for the molecular ion of 2,-5-DCP is monitored at retention time of 4.06 min. Solvent delay for MS acquisition is set at 3 min. GC/MS parameters for liquid sample analysis are the same as those for head space analysis, except that the volume of liquid injection is 1 uL.

Molecule | 2,5-DCP product detected
B1 | not detected
B2 | detected
B3 | not detected
B4 | not detected
B5 | not detected
B6 | not detected
B7 | not detected

Experiment: Dicamba decarboxylation activity of computationally designed protein variants and parents (Tables 4, 5)
Conditions: native proteins and designed variants; assay not specified

Molecule | dicamba decarboxylase activity (statement in the description)
B1 | have dicamba decarboxylase activity
B2 | native dicamba decarboxylase activity
B3 | have dicamba decarboxylase activity
B4 | have dicamba decarboxylase activity
B5 | have dicamba decarboxylase activity
B6 | have dicamba decarboxylase activity
B7 | have dicamba decarboxylase activity

Same assay, conditions: parent (SEQ ID NO: 1 or SEQ ID NO: 41) = 100

Molecule | Percent Activity Improvement Over Parent (%)
B2 | 100

Experiment: 14C assay: 14CO2 capture from [14C]-carboxyl-labeled dicamba with IPTG-induced recombinant E. coli cells
Conditions: IPTG-induced recombinant E. coli cells; 14CO2 from [14C]-carboxyl-labeled dicamba

Molecule | Dicamba Decarboxylase Activity
B2 | High

Same assay, conditions: among the 108 sequences tested; recombinant E. coli cell assay

Molecule | decarboxylation activity of dicamba
B2 | showed decarboxylation activity of dicamba

Same assay, conditions: dicamba decarboxylation activity

Molecule | Enzymatic Detection level
B1 | High
B2 | High
B3 | High
B4 | High
B5 | High
B6 | High
B7 | High
